The values that follow are results of earlier work, collected in patent US20160114005A1, “HYBRID PROTEIN THAT CONVERTS ARACHIDONIC ACID INTO PROSTACYCLIN” (UNIVERSITY OF HOUSTON SYSTEM, priority 2006, published 2016).

“And” between values parts separate entries of the source, which are not always exact repeats. Equal values may be shown once. Read-outs that look alike come from different tables or passages of the source.

As for “COX2: Individual cyclooxygenase isoform-2 enzyme [reference compound]”, the Km (in general, the substrate concentration at which the rate is half of its maximum) (individual COX2, previously characterized by several groups) was 6.5 µM and 0.9 µM.

B1: PGIS: Individual prostacyclin synthase enzyme (protein, UniProt Q16647 1-500, looked up)
Prostacyclin synthase: MAWAALLGLLAALLLLLLLSRRRTRRPGEPPLDLGSIPWLGYALDFGKDAASFLTRMKEKHGDIFTILVGGRYVTVLLDPHSYDAVVWEPRTRLDFHAYAIFLMERIFDVQLPHYSPSDEKARMKLTLLHRELQALTEAMYTNLHAVLLGDATEAGSGWHEMGLLDFSYSFLLRAGYLTLYGIEALPRTHESQAQDRVHSADVFHTFRQLDRLLPKLARGSLSVGDKDHMCSVKSRLWKLLSPARLARRAHRSKWLESYLLHLEEMGVSEEMQARALVLQLWATQGNMGPAAFWLLLFLLKNPEALAAVRGELESILWQAEQPVSQTTTLPQKVLDSTPVLDSVLSESLRLTAAPFITREVVVDLAMPMADGREFNLRRGDRLLLFPFLSPQRDPEIYTDPEVFKYNRFLNPDGSEKKDFYKDGKRLKNYNMPWGAGHNHCLGRSYAVNSIKQFVFLVLVHLDLELINADVEIPEFDLSRYGFGLMQPEHDVPVRYRIRP
As for B1, the Km (individual PGIS, previously characterized by several groups) is 13.3 µM and 30 µM and 9.5 µM.
